For test [1], the target named is Hsp90 of the yeast-purified Hsp90:Cdc37:CRaf^KD complex (human) (UniProt P08238). Description: cryo-EM structure; same sample as a1; pairs inside the natively isolated Hsp90^closed:Cdc37:CRaf^KD complex, which was assembled in yeast and co-purified.
In test [2] the target is Hsp90 (E. coli purified; used as Hsp90^open without nucleotide or Hsp90^closed) (human) (UniProt P08238). Kind of test: fluorescence correlation spectroscopy (FCS); ~20 nM Alexa488-labelled PP5 with varying concentrations of Hsp90^closed dimer; room temperature; hydrodynamic radius against Hsp90 concentration, one-site total binding fit; apparent KD.
The target of test [3] is Hsp90 of the mammalian-purified Hsp90:Cdc37:CRaf complexes (human) (UniProt P08238).
The target of test [4] is Hsp90 (E. coli purified; used as Hsp90^open without nucleotide or Hsp90^closed) (human) (UniProt P08238).
Test [5] shares this target. Description: fluorescence correlation spectroscopy (FCS); ~20 nM Alexa488-labelled PP5 with varying concentrations of Hsp90^open; room temperature; hydrodynamic radius against Hsp90 concentration, one-site total binding fit; apparent KD.
Test [6] addresses Hsp90 of the mammalian-purified Hsp90:Cdc37:CRaf complexes (human) (UniProt P08238). The source holds these as a separate data set.
Test [7] has as its target Hsp90 (E. coli purified; used as Hsp90^open without nucleotide or Hsp90^closed) (human) (UniProt P08238). This is another data set of the same source.
Test [8] shares this target. Kind of test: fluorescence correlation spectroscopy (FCS); ~20 nM Alexa488-labelled PP5 with varying concentrations of Hsp90^closed dimer; room temperature; hydrodynamic radius against Hsp90 concentration, one-site total binding fit; apparent KD. This is another data set of the same source.

These results are taken from paper PMC10110553.

As a reminder, the stoichiometry N is the number of molecules, sites or subunits per partner or assembly.

Chain of UniProt P08238 (P08238 2-724 limits assumed): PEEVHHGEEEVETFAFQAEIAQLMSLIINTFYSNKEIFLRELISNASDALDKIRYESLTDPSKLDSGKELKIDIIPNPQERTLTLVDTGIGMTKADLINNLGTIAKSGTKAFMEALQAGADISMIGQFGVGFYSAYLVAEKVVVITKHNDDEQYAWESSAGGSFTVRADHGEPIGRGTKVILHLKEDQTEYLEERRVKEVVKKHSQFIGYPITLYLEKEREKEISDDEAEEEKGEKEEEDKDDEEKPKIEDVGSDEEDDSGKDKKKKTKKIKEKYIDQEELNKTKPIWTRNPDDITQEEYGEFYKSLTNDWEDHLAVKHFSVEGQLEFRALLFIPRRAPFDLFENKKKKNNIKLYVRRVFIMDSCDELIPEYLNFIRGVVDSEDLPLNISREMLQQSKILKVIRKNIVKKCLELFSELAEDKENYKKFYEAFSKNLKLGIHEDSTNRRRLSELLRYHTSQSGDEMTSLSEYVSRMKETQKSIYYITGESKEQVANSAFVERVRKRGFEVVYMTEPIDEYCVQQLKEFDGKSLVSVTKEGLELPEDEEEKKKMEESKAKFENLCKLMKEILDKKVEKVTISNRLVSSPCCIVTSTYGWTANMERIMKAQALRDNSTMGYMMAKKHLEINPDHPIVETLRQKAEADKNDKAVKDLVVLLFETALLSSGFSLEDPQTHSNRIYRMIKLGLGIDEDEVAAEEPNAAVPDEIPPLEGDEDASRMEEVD

The molecule “Hsp90 of the yeast-purified Hsp90:Cdc37:CRaf^KD complex (from UniProt P08238 1-724) (natural protein)” yielded a stoichiometry N in test [1] of 2.

B1: PP5^(αJ del) (PP5 with the last 10 residues truncated) (enzyme)
chain: MAMAEGERTECAEPPRDEPPADGALKRAEELKTQANDYFKAKDYENAIKFYSQAIELNPSNAIYYGNRSLAYLRTECYGYALGDATRAIELDKKYIKGYYRRAASNMALGKFRAALRDYETVVKVKPHDKDAKMKYQECNKIVKQKAFERAIAGDEHKRSVVDSLDIESMTIEDEYSGPKLEDGKVTISFMKELMQWYKDQKKLHRKCAYQILVQVKEVLSKLSTLVETTLKETEKITVCGDTHGQFYDLLNIFELNGLPSETNPYIFNGDFVDRGSFSVEVILTLFGFKLLYPDHFHLLRGNHETDNMNQIYGFEGEVKAKYTAQMYELFSEVFEWLPLAQCINGKVLIMHGGLFSEDGVTLDDIRKIERNRQPPDSGPMCDLLWSDPQPQNGRSISKRGVSCQFGPDVTKAFLEENNLDYIIRSHEVKAEGYEVAHGGRCVTVFSAPNYCDQMGNKASYIHLQGSDLRPQFHQFTAVPHPNVKPMAY
modifications: Alexa488 (maleimide dye) in the FCS assays
In the case of B1, the Kd is 0.13 µM in test [2] and 0.12 µM in test [5]. In addition, the rate of CRaf^pS338 dephosphorylation by PP5^(αJ del) in the Hsp90:Cdc37:CRaf complex in test [3] was found to be 0.28 min^−1. In addition, in test [4], the rate of Cdc37 dephosphorylation by PP5^(αJ del) while Cdc37 is bound to Hsp90 is 0.055 min⁻¹.

B2: Serine/threonine-protein phosphatase 5 (PP5), wild type (enzyme)
chain: MAMAEGERTECAEPPRDEPPADGALKRAEELKTQANDYFKAKDYENAIKFYSQAIELNPSNAIYYGNRSLAYLRTECYGYALGDATRAIELDKKYIKGYYRRAASNMALGKFRAALRDYETVVKVKPHDKDAKMKYQECNKIVKQKAFERAIAGDEHKRSVVDSLDIESMTIEDEYSGPKLEDGKVTISFMKELMQWYKDQKKLHRKCAYQILVQVKEVLSKLSTLVETTLKETEKITVCGDTHGQFYDLLNIFELNGLPSETNPYIFNGDFVDRGSFSVEVILTLFGFKLLYPDHFHLLRGNHETDNMNQIYGFEGEVKAKYTAQMYELFSEVFEWLPLAQCINGKVLIMHGGLFSEDGVTLDDIRKIERNRQPPDSGPMCDLLWSDPQPQNGRSISKRGVSCQFGPDVTKAFLEENNLDYIIRSHEVKAEGYEVAHGGRCVTVFSAPNYCDQMGNKASYIHLQGSDLRPQFHQFTAVPHPNVKPMAYANTLLQLGMM
modifications: Alexa488 (maleimide dye) in the FCS assays
With B2, the values for the Kd in test [2], in test [8] and in test [5] were 0.43 µM, 230 µM and 0.62 µM, respectively. The rate of CRaf^pS338 dephosphorylation by PP5 in the Hsp90:Cdc37:CRaf complex (3 μM complex, 150 nM PP5, 25 °C) in test [6] turned out to be 0.19 min^−1. In test [7], this molecule returned a rate of Cdc37^pS13 dephosphorylation by PP5 in Hsp90^open:Cdc37^pS13 (3 μM Cdc37^pS13 and equimolar Hsp90, 750 nM PP5, 25 °C) of 0.043 min^−1.

B3: PP5^R150D (enzyme)
chain: MAMAEGERTECAEPPRDEPPADGALKRAEELKTQANDYFKAKDYENAIKFYSQAIELNPSNAIYYGNRSLAYLRTECYGYALGDATRAIELDKKYIKGYYRRAASNMALGKFRAALRDYETVVKVKPHDKDAKMKYQECNKIVKQKAFEDAIAGDEHKRSVVDSLDIESMTIEDEYSGPKLEDGKVTISFMKELMQWYKDQKKLHRKCAYQILVQVKEVLSKLSTLVETTLKETEKITVCGDTHGQFYDLLNIFELNGLPSETNPYIFNGDFVDRGSFSVEVILTLFGFKLLYPDHFHLLRGNHETDNMNQIYGFEGEVKAKYTAQMYELFSEVFEWLPLAQCINGKVLIMHGGLFSEDGVTLDDIRKIERNRQPPDSGPMCDLLWSDPQPQNGRSISKRGVSCQFGPDVTKAFLEENNLDYIIRSHEVKAEGYEVAHGGRCVTVFSAPNYCDQMGNKASYIHLQGSDLRPQFHQFTAVPHPNVKPMAYANTLLQLGMM
modifications: Alexa488 (maleimide dye) in the FCS assays
Regarding B3, in test [6], the rate of CRaf^pS338 dephosphorylation by PP5 in the Hsp90:Cdc37:CRaf complex (3 μM complex, 150 nM PP5, 25 °C) worked out at 0.04 min^−1. In test [7], this molecule returned a rate of Cdc37^pS13 dephosphorylation by PP5 in Hsp90^open:Cdc37^pS13 (3 μM Cdc37^pS13 and equimolar Hsp90, 750 nM PP5, 25 °C) of 0.012 min^−1. Further, in test [8], the Kd is 3300 µM.

B4: PP5^R113D (enzyme)
chain: MAMAEGERTECAEPPRDEPPADGALKRAEELKTQANDYFKAKDYENAIKFYSQAIELNPSNAIYYGNRSLAYLRTECYGYALGDATRAIELDKKYIKGYYRRAASNMALGKFDAALRDYETVVKVKPHDKDAKMKYQECNKIVKQKAFERAIAGDEHKRSVVDSLDIESMTIEDEYSGPKLEDGKVTISFMKELMQWYKDQKKLHRKCAYQILVQVKEVLSKLSTLVETTLKETEKITVCGDTHGQFYDLLNIFELNGLPSETNPYIFNGDFVDRGSFSVEVILTLFGFKLLYPDHFHLLRGNHETDNMNQIYGFEGEVKAKYTAQMYELFSEVFEWLPLAQCINGKVLIMHGGLFSEDGVTLDDIRKIERNRQPPDSGPMCDLLWSDPQPQNGRSISKRGVSCQFGPDVTKAFLEENNLDYIIRSHEVKAEGYEVAHGGRCVTVFSAPNYCDQMGNKASYIHLQGSDLRPQFHQFTAVPHPNVKPMAYANTLLQLGMM
modifications: Alexa488 (maleimide dye) in the FCS assays
In test [6], B4 yielded a rate of CRaf^pS338 dephosphorylation by PP5 in the Hsp90:Cdc37:CRaf complex (3 μM complex, 150 nM PP5, 25 °C) of 0.046 min^−1. For the same molecule, the rate of Cdc37^pS13 dephosphorylation by PP5 in Hsp90^open:Cdc37^pS13 (3 μM Cdc37^pS13 and equimolar Hsp90, 750 nM PP5, 25 °C) in test [7] was determined as 0.006 min^−1. Also, the Kd in test [8] is 4300 µM.

B5: PP5^F148K (enzyme)
chain: MAMAEGERTECAEPPRDEPPADGALKRAEELKTQANDYFKAKDYENAIKFYSQAIELNPSNAIYYGNRSLAYLRTECYGYALGDATRAIELDKKYIKGYYRRAASNMALGKFRAALRDYETVVKVKPHDKDAKMKYQECNKIVKQKAKERAIAGDEHKRSVVDSLDIESMTIEDEYSGPKLEDGKVTISFMKELMQWYKDQKKLHRKCAYQILVQVKEVLSKLSTLVETTLKETEKITVCGDTHGQFYDLLNIFELNGLPSETNPYIFNGDFVDRGSFSVEVILTLFGFKLLYPDHFHLLRGNHETDNMNQIYGFEGEVKAKYTAQMYELFSEVFEWLPLAQCINGKVLIMHGGLFSEDGVTLDDIRKIERNRQPPDSGPMCDLLWSDPQPQNGRSISKRGVSCQFGPDVTKAFLEENNLDYIIRSHEVKAEGYEVAHGGRCVTVFSAPNYCDQMGNKASYIHLQGSDLRPQFHQFTAVPHPNVKPMAYANTLLQLGMM
modifications: Alexa488 (maleimide dye) in the FCS assays
Molecule B5 gave a rate of CRaf^pS338 dephosphorylation by PP5 in the Hsp90:Cdc37:CRaf complex (3 μM complex, 150 nM PP5, 25 °C) in test [6] of 0.05 min^−1. In test [7], this molecule had a rate of Cdc37^pS13 dephosphorylation by PP5 in Hsp90^open:Cdc37^pS13 (3 μM Cdc37^pS13 and equimolar Hsp90, 750 nM PP5, 25 °C) of 0.009 min^−1. Also, in test [8], the Kd came to 2000 µM.
